Source: patent CN109265548A (UNIV SOUTHEAST, dated 2019)

Tests used:
PD-L1(鼠) = molecular target: T1, PD-L1(鼠) (鼠 (murine), UniProt Q9EP73 19-239, limits assumed); assay: ELISA, antigen coated 0.5 μg per well, detection with rabbit anti-HA and HRP goat anti-rabbit
T1 construct: also called 鼠源的PD-L1

PD-L2(人) = molecular target: T2, PD-L2(人) (human, UniProt Q9BQ51 20-220, limits assumed); assay: as above
T2 construct: also called 人PD-L2
T2 sequence (looked up): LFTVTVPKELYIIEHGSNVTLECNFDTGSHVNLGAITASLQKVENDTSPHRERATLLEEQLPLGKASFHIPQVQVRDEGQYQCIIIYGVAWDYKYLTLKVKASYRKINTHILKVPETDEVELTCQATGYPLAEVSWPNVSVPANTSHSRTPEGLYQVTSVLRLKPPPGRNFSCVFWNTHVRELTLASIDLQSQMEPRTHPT

T1 sequence (Q9EP73 19-239 limits assumed): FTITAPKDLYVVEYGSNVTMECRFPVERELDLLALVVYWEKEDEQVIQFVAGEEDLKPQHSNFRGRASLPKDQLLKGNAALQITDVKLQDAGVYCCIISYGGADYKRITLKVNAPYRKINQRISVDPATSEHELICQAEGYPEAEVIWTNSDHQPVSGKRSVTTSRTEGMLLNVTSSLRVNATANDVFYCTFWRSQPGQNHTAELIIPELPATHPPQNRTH

B1: 抗PD-L1Nb15 (VHH)
VHH: QVQLVESGGGSVQAGGALRLSCAASGYTSTSNCMGWFRQAPGKEREGVAAIYTGGGSTYYADSVKGRFTISQDNAKNTVYLQMNSLKPEDTAMYYCAAGDLDPAEYSDYDPTVFNYWGQGTLVTVSS
notes: Expressed from pET32a in E. coli BL21(DE3), purified on Ni-IDA and detected in ELISA with an anti-HA antibody; the vector-derived tags are not described; also called antiPD-L1Nb15; 抗PD-L1-VHH15
B1: no binding (tested: 10μg/mL) (PD-L1(鼠)); no binding (tested: 10μg/mL) (PD-L2(人)).
